Data reported in patent US10472605B2, “Serum-free medium” (National University of Ireland, Galway, priority 2014, dated 2019).

B1: vitronectin: extra-cellular matrix attachment factor used to pre-coat flasks (protein, UniProt P04004 20-478, looked up)
Vitronectin: DQESCKGRCTEGFNVDKKCQCDELCSYYQSCCTDYTAECKPQVTRGDVFTMPEDEYTVYDDGEEKNNATVHEQVGGPSLTSDLQAQSKGNPEQTPVLKPEEEAPAPEVGASKPEGIDSRPETLHPGRPQPPAEEELCSGKPFDAFTDLKNGSLFAFRGQYCYELDEKAVRPGYPKLIRDVWGIEGPIDAAFTRINCQGKTYLFKGSQYWRFEDGVLDPDYPRNISDGFDGIPDNVDAALALPAHSYSGRERVYFFKGKQYWEYQFQHQPSQEECEGSSLSAVFEHFAMMQRDSWEDIFELLFWGRTSAGTRQPQFISRDWHGVPGQVDAAMAGRIYISGMAPRPSLAKKQRFRHRNRKGYRSQRGHSRGRNQNSRRPSRATWLSLFSSEESNLGANNYDDYRMDWLVPATCEPIQSVFFFSGDKYYRVNLRTRRVDTVDPPYPRSIAQYWLGCPAPGHL
B2: FGF4: fibroblast growth factor 4 (protein, UniProt P08620 31-206, looked up)
Fibroblast growth factor 4: APTAPNGTLEAELERRWESLVALSLARLPVAAQPKEAAVQSGAGDYLLGIKRLRRLYCNVGIGFHLQALPDGRIGGAHADTRDSLLELSPVERGVVSIFGVASRFFVAMSSKGKLYGSPFFTDECTFKEILLPNNYNAYESYKYPGMFIALSKNGKTKKGNRVSPTMKVTHFLPRL

How the values were obtained:
MSC [1] = experiment: Attachment of MSC isolated in 10% FBS and re-attached under serum-free conditions; type: cell-based; conditions: after 18 hours in a serum-free environment; vitronectin 0.5 μg/ml pre-coating
Excerpt: Tissue culture flasks were pre-coated with fibronectin (FN; black), hylauronic acid (HA; blue), vitronectin (VN; red) or laminin (LN; green) and cells were allowed to adhere in serum-free conditions. Controls include serum-free plating without the presence of an extra-cellular matrix (ECM) attachment factor and 10% FBS (grey). Results are representative of 3 biological replicates with n=2;
MSC were attached on tissue culture flasks in the presence of EGF (red) or on tissue culture plastic precoated with FN (purple) or in the presence of EGF on fibronectin coated plastic (green) and passaged every 3 days. Controls include serum free plating without the presence of an ECM attachment factor (blue) and 10% FBS (black). Results are representative of 3 biological replicates with n=2;
(§1) Proliferation of the MSC attached in the presence of basic fibroblast growth factor (bFGF2, FGF2) was also assessed after 6 days.

MSC [2] = experiment: Growth/proliferation of MSC isolated in 10% FBS and re-attached under serum-free conditions; type: cell-based; conditions: 5 ng/ml; over 3 passages, days 5, 10 and 15; fibronectin-coated
Experimental: Tissue culture flasks were pre-coated with FN (black), HA (blue), VN (red) or LN (green) and cells were allowed to adhere in serum-free conditions. Cell numbers were obtained after 5 days. Controls include serum-free plating without the presence of an ECM attachment factor and 10% FBS (grey). Results are representative of 3 biological replicates with n=2;
Cells were then cultured in the presence of growth factors and passaged every 5 days. Controls include serum free plating without growth factors and 10% FBS. Results are representative of 3 biological replicates with n=2;
Cells were then cultured in serum-free media containing FGF2 (5 ng/ml) in the presence of PGE2, cholesterol or lipoprotein for 5 days. Controls include serum free plating without growth factors 10% FBS (A). Cells were then cultured in the presence of lipoprotein and passaged every 5 days for 3 passages, controls include serum free plating without lipoprotein (B). Results are representative of 3 biological replicates with n=2;
as §1
Serum-free basal medium formulation was selected based on the literature describing low-serum cell culture of dental pulp stem cells (Tarle et al., 2010). […]

Row | Molecule | MSC attachment (MSC [1]) | MSC proliferation in serum free medium (MSC [2])
1 | B1 | supported MSC attachment optimally | –
2 | B2 | – | increased MSC proliferation
